Experimental data taken from patent publication US8138323.
Values belong to the substance of their own block, whether it stands above or below them.

Columns and labels:
[1] = target: TNF Binding Protein I (human) (UniProt P19438); test: solid phase assay, 125I-TBP-I bound to TNF-α with 10 µg/ml IFN-gamma as competitor
[2] = target: Tumor Necrosis Factor (TNF) Binding Protein II (human) (UniProt P20333); test: solid phase assay, 125I-TBP-II bound to TNF-α with 10 µg/ml IFN-gamma as competitor
[3] = target: TNF Binding Protein I (human) (UniProt P19438); test: solid phase assay, 125I-TBP-I bound to TNF-α with 10 µg/ml IL-1α as competitor
[4] = target: Tumor Necrosis Factor (TNF) Binding Protein II (human) (UniProt P20333); test: solid phase assay, 125I-TBP-II bound to TNF-α with 10 µg/ml IL-1α as competitor
[5] = target: Tumor Necrosis Factor (TNF) Binding Protein II (human) (UniProt P20333); test: solid phase assay, 125I-TBP-II bound to TNF-α with 10 µg/ml IL-6 as competitor
[6] = target: TNF Binding Protein I (human) (UniProt P19438); test: solid phase assay, 125I-TBP-I bound to TNF-α with 10 µg/ml IL-6 as competitor

bound CPM [1]: 28000 CPM
Substance: IFN-gamma (from UniProt P01579 24-166) (ligand)
bound CPM [2]: 18500 CPM

bound CPM [3]: 28100 CPM
Substance: IL-1α (from UniProt P01583 113-271) (ligand)
bound CPM [4]: 17800 CPM

bound CPM [6]: 27000 CPM
Substance: IL-6 (from UniProt P05231 30-212) (ligand)
bound CPM [5]: 18600 CPM
